Data from the supplement of paper PMC10724198.
± gives the standard deviation of the averaged measurements.

What was measured:
Saccharomyces cerevisiae [1] = assay: protein stability index of tFT-peptide fusion (C-terminal peptide) (PSI (0-1 scale)); higher = more stable (slower turnover)
Description: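 MPS profiling in S. cerevisiae of the tFT-X12 degron library: putative degron peptides plus stable controls, 12 aa, fused to the C-terminus of a sfGFP-mCherry timer. Cells are FACS-sorted into 8 mCherry/sfGFP bins and deep-sequenced. PSI runs from 0 (unstable) to 1 (stable). Backgrounds are wild type, das1Δ and doa10Δ at 30 °C, and wild type, das1Δ, cdc34-1 and cdc53-1 at 37 °C; 2-3 technical replicates each.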

Saccharomyces cerevisiae [2] = assay: as above; conditions: genetic background: wild type; temperature: 30 C
[3] = genetic background: cdc34-1, temperature: 37 C
[4] = genetic background: cdc53-1, temperature: 37 C
[5] = genetic background: das1 deletion, temperature: 30 C
[6] = genetic background: das1 deletion, temperature: 37 C
[7] = genetic background: doa10 deletion, temperature: 30 C
[8] = genetic background: wild type, temperature: 30 C
[9] = genetic background: wild type, temperature: 37 C
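Note: PSI is a weighted mean of sequencing reads over stability bins, variants kept only with over 10 reads, mCherry proximal and sfGFP distal, peptide attached via GGGS linker.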

## YSVFCPLFFIIY
Saccharomyces cerevisiae [1]; [3]
  protein stability index: 0.3507 ± 0.0014
Saccharomyces cerevisiae [1]; [4]
  protein stability index: 0.323 ± 0.006
Saccharomyces cerevisiae [1]; [5]
  protein stability index: 0.298 ± 0.04
Saccharomyces cerevisiae [1]; [6]
  protein stability index: 0.458 ± 0.013
Saccharomyces cerevisiae [1]; [7]
  protein stability index: 0.351 ± 0.014
Saccharomyces cerevisiae [1]; [8]
  protein stability index: 0.283 ± 0.02
Saccharomyces cerevisiae [1]; [9]
  protein stability index: 0.433 ± 0.0062
Saccharomyces cerevisiae [2]
  protein stability index: 0.379 ± 0.014

## VVVRARVFFHIF
Saccharomyces cerevisiae [1]; [3]
  protein stability index: 0.285 ± 0.012
Saccharomyces cerevisiae [1]; [4]
  protein stability index: 0.444 ± 0.015
Saccharomyces cerevisiae [1]; [5]
  protein stability index: 0.361 ± 0.022
Saccharomyces cerevisiae [1]; [6]
  protein stability index: 0.538 ± 0.006
Saccharomyces cerevisiae [1]; [7]
  protein stability index: 0.0651 ± 0.0018
Saccharomyces cerevisiae [1]; [8]
  protein stability index: 0.0583 ± 0.025
Saccharomyces cerevisiae [1]; [9]
  protein stability index: 0.07 ± 0.014
Saccharomyces cerevisiae [2]
  protein stability index: 0.0561 ± 0.048

## CRLLYYIPCGLF
Saccharomyces cerevisiae [1]; [3]
  protein stability index: 0.656 ± 0.02
Saccharomyces cerevisiae [1]; [4]
  protein stability index: 0.703 ± 0.026
Saccharomyces cerevisiae [1]; [5]
  protein stability index: 0.534 ± 0.029
Saccharomyces cerevisiae [1]; [6]
  protein stability index: 0.701 ± 0.035
Saccharomyces cerevisiae [1]; [7]
  protein stability index: 0.359 ± 0.022
Saccharomyces cerevisiae [1]; [8]
  protein stability index: 0.403 ± 0.014
Saccharomyces cerevisiae [1]; [9]
  protein stability index: 0.5973 ± 0.00064
Saccharomyces cerevisiae [2]
  protein stability index: 0.49841 ± 0.00044

## VFFMFVFFPFPG
Saccharomyces cerevisiae [1]; [3]
  protein stability index: 0.523 ± 0.084
Saccharomyces cerevisiae [1]; [4]
  protein stability index: 0.584 ± 0.035
Saccharomyces cerevisiae [1]; [5]
  protein stability index: 0.404 ± 0.029
Saccharomyces cerevisiae [1]; [6]
  protein stability index: 0.592 ± 0.03
Saccharomyces cerevisiae [1]; [7]
  protein stability index: 0.368 ± 0.014
Saccharomyces cerevisiae [1]; [8]
  protein stability index: 0.413 ± 0.028
Saccharomyces cerevisiae [1]; [9]
  protein stability index: 0.538 ± 0.0059
Saccharomyces cerevisiae [2]
  protein stability index: 0.471 ± 0.026

## PPPPTPRPLLPP
Saccharomyces cerevisiae [1]; [3]
  protein stability index: 0.662 ± 0.011
Saccharomyces cerevisiae [1]; [4]
  protein stability index: 0.7253 ± 0.0031
Saccharomyces cerevisiae [1]; [5]
  protein stability index: 0.677 ± 0.034
Saccharomyces cerevisiae [1]; [6]
  protein stability index: 0.73 ± 0.021
Saccharomyces cerevisiae [1]; [7]
  protein stability index: 0.666 ± 0.039
Saccharomyces cerevisiae [1]; [8]
  protein stability index: 0.667 ± 0.011
Saccharomyces cerevisiae [1]; [9]
  protein stability index: 0.697 ± 0.012
Saccharomyces cerevisiae [2]
  protein stability index: 0.449 ± 0.029

## LCVFRFFLFFFL
Saccharomyces cerevisiae [1]; [3]
  protein stability index: 0.35 ± 0.012
Saccharomyces cerevisiae [1]; [4]
  protein stability index: 0.371 ± 0.034
Saccharomyces cerevisiae [1]; [5]
  protein stability index: 0.327 ± 0.032
Saccharomyces cerevisiae [1]; [6]
  protein stability index: 0.461 ± 0.012
Saccharomyces cerevisiae [1]; [7]
  protein stability index: 0.364 ± 0.019
Saccharomyces cerevisiae [1]; [8]
  protein stability index: 0.291 ± 0.027
Saccharomyces cerevisiae [1]; [9]
  protein stability index: 0.427 ± 0.016
Saccharomyces cerevisiae [2]
  protein stability index: 0.402 ± 0.054

## CWDNTLKTMRQM
Saccharomyces cerevisiae [1]; [3]
  protein stability index: 0.67 ± 0.0063
Saccharomyces cerevisiae [1]; [4]
  protein stability index: 0.732 ± 0.022
Saccharomyces cerevisiae [1]; [5]
  protein stability index: 0.655 ± 0.042
Saccharomyces cerevisiae [1]; [6]
  protein stability index: 0.7322 ± 0.0059
Saccharomyces cerevisiae [1]; [7]
  protein stability index: 0.307 ± 0.015
Saccharomyces cerevisiae [1]; [8]
  protein stability index: 0.333 ± 0.018
Saccharomyces cerevisiae [1]; [9]
  protein stability index: 0.5969 ± 0.0032
Saccharomyces cerevisiae [2]
  protein stability index: 0.228 ± 0.1

## CLVKIVIFFLFS
Saccharomyces cerevisiae [1]; [3]
  protein stability index: 0.22 ± 0.011
Saccharomyces cerevisiae [1]; [4]
  protein stability index: 0.326 ± 0.016
Saccharomyces cerevisiae [1]; [5]
  protein stability index: 0.217 ± 0.037
Saccharomyces cerevisiae [1]; [6]
  protein stability index: 0.371 ± 0.0075
Saccharomyces cerevisiae [1]; [7]
  protein stability index: 0.191 ± 0.012
Saccharomyces cerevisiae [1]; [8]
  protein stability index: 0.211 ± 0.024
Saccharomyces cerevisiae [1]; [9]
  protein stability index: 0.34 ± 0.019
Saccharomyces cerevisiae [2]
  protein stability index: 0.349 ± 0.035

## PASYPPFIYLSI
Saccharomyces cerevisiae [1]; [3]
  protein stability index: 0.306 ± 0.012
Saccharomyces cerevisiae [1]; [4]
  protein stability index: 0.288 ± 0.018
Saccharomyces cerevisiae [1]; [5]
  protein stability index: 0.419 ± 0.032
Saccharomyces cerevisiae [1]; [6]
  protein stability index: 0.496 ± 0.01
Saccharomyces cerevisiae [1]; [7]
  protein stability index: 0.654 ± 0.018
Saccharomyces cerevisiae [1]; [8]
  protein stability index: 0.418 ± 0.026
Saccharomyces cerevisiae [1]; [9]
  protein stability index: 0.4461 ± 0.00056
Saccharomyces cerevisiae [2]
  protein stability index: 0.434 ± 0.077

## LFLLYVLVSLFV
Saccharomyces cerevisiae [1]; [3]
  protein stability index: 0.288 ± 0.019
Saccharomyces cerevisiae [1]; [4]
  protein stability index: 0.347 ± 0.064
Saccharomyces cerevisiae [1]; [5]
  protein stability index: 0.267 ± 0.048
Saccharomyces cerevisiae [1]; [6]
  protein stability index: 0.369 ± 0.019
Saccharomyces cerevisiae [1]; [7]
  protein stability index: 0.222 ± 0.0045
Saccharomyces cerevisiae [1]; [8]
  protein stability index: 0.251 ± 0.025
Saccharomyces cerevisiae [1]; [9]
  protein stability index: 0.39 ± 0.052
Saccharomyces cerevisiae [2]
  protein stability index: 0.281 ± 0.045

## GFSSRWLMQYMV
Saccharomyces cerevisiae [1]; [3]
  protein stability index: 0.585 ± 0.05
Saccharomyces cerevisiae [1]; [4]
  protein stability index: 0.737 ± 0.0088
Saccharomyces cerevisiae [1]; [5]
  protein stability index: 0.665 ± 0.021
Saccharomyces cerevisiae [1]; [6]
  protein stability index: 0.747 ± 0.0094
Saccharomyces cerevisiae [1]; [7]
  protein stability index: 0.326 ± 0.014
Saccharomyces cerevisiae [1]; [8]
  protein stability index: 0.375 ± 0.11
Saccharomyces cerevisiae [1]; [9]
  protein stability index: 0.462 ± 0.042
Saccharomyces cerevisiae [2]
  protein stability index: 0.369 ± 0.0081

## PSPPPPLPPHPS
Saccharomyces cerevisiae [1]; [3]
  protein stability index: 0.688 ± 0.039
Saccharomyces cerevisiae [1]; [4]
  protein stability index: 0.7321 ± 0.0069
Saccharomyces cerevisiae [1]; [5]
  protein stability index: 0.69 ± 0.031
Saccharomyces cerevisiae [1]; [6]
  protein stability index: 0.72 ± 0.01
Saccharomyces cerevisiae [1]; [7]
  protein stability index: 0.685 ± 0.019
Saccharomyces cerevisiae [1]; [8]
  protein stability index: 0.667 ± 0.013
Saccharomyces cerevisiae [1]; [9]
  protein stability index: 0.716 ± 0.032
Saccharomyces cerevisiae [2]
  protein stability index: 0.721 ± 0.025

## FHLVIYWCVRGP
Saccharomyces cerevisiae [1]; [3]
  protein stability index: 0.337 ± 0.013
Saccharomyces cerevisiae [1]; [4]
  protein stability index: 0.453 ± 0.088
Saccharomyces cerevisiae [1]; [5]
  protein stability index: 0.299 ± 0.035
Saccharomyces cerevisiae [1]; [6]
  protein stability index: 0.45 ± 0.0086
Saccharomyces cerevisiae [1]; [7]
  protein stability index: 0.2623 ± 0.0021
Saccharomyces cerevisiae [1]; [8]
  protein stability index: 0.281 ± 0.053
Saccharomyces cerevisiae [1]; [9]
  protein stability index: 0.474 ± 0.034
Saccharomyces cerevisiae [2]
  protein stability index: 0.428 ± 0.034

## GIISMYVARRLG
Saccharomyces cerevisiae [1]; [3]
  protein stability index: 0.594 ± 0.037
Saccharomyces cerevisiae [1]; [4]
  protein stability index: 0.689 ± 0.0079
Saccharomyces cerevisiae [1]; [5]
  protein stability index: 0.661 ± 0.015
Saccharomyces cerevisiae [1]; [6]
  protein stability index: 0.69833 ± 0.00068
Saccharomyces cerevisiae [1]; [7]
  protein stability index: 0.149 ± 0.016
Saccharomyces cerevisiae [1]; [8]
  protein stability index: 0.173 ± 0.034
Saccharomyces cerevisiae [1]; [9]
  protein stability index: 0.3 ± 0.022
Saccharomyces cerevisiae [2]
  protein stability index: 0.285 ± 0.019

## RSRCVRAAVKVG
Saccharomyces cerevisiae [1]; [3]
  protein stability index: 0.612 ± 0.036
Saccharomyces cerevisiae [1]; [4]
  protein stability index: 0.659 ± 0.025
Saccharomyces cerevisiae [1]; [5]
  protein stability index: 0.569 ± 0.043
Saccharomyces cerevisiae [1]; [6]
  protein stability index: 0.70656 ± 0.00048
Saccharomyces cerevisiae [1]; [7]
  protein stability index: 0.177 ± 0.0018
Saccharomyces cerevisiae [1]; [8]
  protein stability index: 0.216 ± 0.023
Saccharomyces cerevisiae [1]; [9]
  protein stability index: 0.427 ± 0.026
Saccharomyces cerevisiae [2]
  protein stability index: 0.324 ± 0.0059

## SVGCCLLCFFVL
Saccharomyces cerevisiae [1]; [3]
  protein stability index: 0.523 ± 0.012
Saccharomyces cerevisiae [1]; [4]
  protein stability index: 0.563 ± 0.012
Saccharomyces cerevisiae [1]; [5]
  protein stability index: 0.41 ± 0.03
Saccharomyces cerevisiae [1]; [6]
  protein stability index: 0.5645 ± 0.0043
Saccharomyces cerevisiae [1]; [7]
  protein stability index: 0.339 ± 0.029
Saccharomyces cerevisiae [1]; [8]
  protein stability index: 0.351 ± 0.029
Saccharomyces cerevisiae [1]; [9]
  protein stability index: 0.5031 ± 0.0027
Saccharomyces cerevisiae [2]
  protein stability index: 0.425 ± 0.028

## VFLVGFRVTLDS
Saccharomyces cerevisiae [1]; [3]
  protein stability index: 0.267 ± 0.035
Saccharomyces cerevisiae [1]; [4]
  protein stability index: 0.289 ± 0.011
Saccharomyces cerevisiae [1]; [5]
  protein stability index: 0.219 ± 0.025
Saccharomyces cerevisiae [1]; [6]
  protein stability index: 0.404 ± 0.018
Saccharomyces cerevisiae [1]; [7]
  protein stability index: 0.189 ± 0.018
Saccharomyces cerevisiae [1]; [8]
  protein stability index: 0.215 ± 0.033
Saccharomyces cerevisiae [1]; [9]
  protein stability index: 0.419 ± 0.0069
Saccharomyces cerevisiae [2]
  protein stability index: 0.295 ± 0.0062

## EWLITLRKCGVA
Saccharomyces cerevisiae [1]; [3]
  protein stability index: 0.606 ± 0.03
Saccharomyces cerevisiae [1]; [4]
  protein stability index: 0.613 ± 0.011
Saccharomyces cerevisiae [1]; [5]
  protein stability index: 0.478 ± 0.026
Saccharomyces cerevisiae [1]; [6]
  protein stability index: 0.6107 ± 0.006
Saccharomyces cerevisiae [1]; [7]
  protein stability index: 0.397 ± 0.0075
Saccharomyces cerevisiae [1]; [8]
  protein stability index: 0.423 ± 0.027
Saccharomyces cerevisiae [1]; [9]
  protein stability index: 0.533 ± 0.006
Saccharomyces cerevisiae [2]
  protein stability index: 0.463 ± 0.048

## RSKKIFLTKKYS
Saccharomyces cerevisiae [1]; [3]
  protein stability index: 0.608 ± 0.053
Saccharomyces cerevisiae [1]; [4]
  protein stability index: 0.734 ± 0.042
Saccharomyces cerevisiae [1]; [5]
  protein stability index: 0.64 ± 0.035
Saccharomyces cerevisiae [1]; [6]
  protein stability index: 0.701 ± 0.018
Saccharomyces cerevisiae [1]; [7]
  protein stability index: 0.162 ± 0.0021
Saccharomyces cerevisiae [1]; [8]
  protein stability index: 0.202 ± 0.025
Saccharomyces cerevisiae [1]; [9]
  protein stability index: 0.395 ± 0.044
Saccharomyces cerevisiae [2]
  protein stability index: 0.281 ± 0.075

## ENKGGNQKRRKK
Saccharomyces cerevisiae [1]; [3]
  protein stability index: 0.686 ± 0.048
Saccharomyces cerevisiae [1]; [4]
  protein stability index: 0.743 ± 0.056
Saccharomyces cerevisiae [1]; [5]
  protein stability index: 0.628 ± 0.056
Saccharomyces cerevisiae [1]; [6]
  protein stability index: 0.736 ± 0.012
Saccharomyces cerevisiae [1]; [7]
  protein stability index: 0.646 ± 0.014
Saccharomyces cerevisiae [1]; [8]
  protein stability index: 0.635 ± 0.021
Saccharomyces cerevisiae [1]; [9]
  protein stability index: 0.698 ± 0.035
Saccharomyces cerevisiae [2]
  protein stability index: 0.559 ± 0.18
